{
  "source": "paper PMC6281755",
  "about": "(Diabetes, obesity & metabolism, 2018)",
  "key": {"glucose metabolism": {"tested_on": "glucose metabolism", "assay_type": "in vivo, dog", "conditions": "dogs, estimate (90% CI)"}, "[1]": {"conditions": "dog, in vivo"}, "[2]": {"conditions": "dog, in vivo, po"}, "[3]": {"conditions": "dog, in vivo", "remark": "listed apart in the source"}, "[4]": {"conditions": "in vivo; cited from earlier work"}},
  "note": "Where two headings read alike, the source gives them in different places.",
  "data": [
    {"substance": "insulin tregopil", "values": [
      {"measurement": "Mean difference (human insulin-tregopil): GIR AUC0-120 min", "setting": "glucose metabolism; intraportal 3.6 pmol/kg/min", "result": -24.1, "unit": "mg/kg"},
      {"measurement": "Mean difference (human insulin-tregopil): NHGB, last 30 min period 1", "setting": "glucose metabolism; intraportal 3.6 pmol/kg/min", "result": 0.53, "unit": "mg/kg/min"},
      {"measurement": "Mean difference (human insulin-tregopil): GIR AUC120-240 min", "setting": "glucose metabolism; intraportal 12.0 pmol/kg/min", "result": -74, "unit": "mg/kg"},
      {"measurement": "Mean difference (human insulin-tregopil): NHGB, last 30 min period 2", "setting": "glucose metabolism; intraportal 12.0 pmol/kg/min", "result": 0.30, "unit": "mg/kg/min"},
      {"measurement": "Mean difference (human insulin-tregopil): non-hepatic glucose uptake, last 30 min period 2", "setting": "glucose metabolism; intraportal 12.0 pmol/kg/min", "result": -1.6, "unit": "mg/kg/min"},
      {"measurement": "Mean difference (human insulin-tregopil): ΔNHGB, period 1 to period 2", "setting": "glucose metabolism; intraportal 3.6 then 12.0 pmol/kg/min", "result": 0.2, "unit": "mg/kg/min"},
      {"measurement": "Fraction extracted on first-pass by the liver", "setting": "[1]", "result": "one-third"},
      {"measurement": "Cmax of first dose compared with second dose", "setting": "[2]", "result": 117, "unit": "%"},
      {"measurement": "Insulin AUC0–120 of first dose compared with second dose", "setting": "[2]", "result": 118, "unit": "%"},
      {"measurement": "Mean Cmax of first dose compared with second dose", "setting": "[2]", "result": 88, "unit": "%"},
      {"measurement": "tmax", "setting": "[2]", "result": 20, "unit": "min"},
      {"measurement": "Median tmax", "setting": "[3]", "result": 20, "unit": "min"},
      {"measurement": "Off-times", "setting": "dog, in vivo", "result": "≤ 120", "unit": "min"},
      {"measurement": "tmax", "setting": "dog, in vivo", "result": "≤ 20", "unit": "min"},
      {"measurement": "Duration of PD effect after a dose", "setting": "dogs, oral dose, statement in discussion", "result": 90, "unit": "min"},
      {"measurement": "Time to peak concentration (tmax)", "setting": "[4]", "result": 30, "unit": "min"}
    ]}
  ]
}
